The results in this text go back to US20250042994A1 (HAINAN SIMCERE ZAIMING PHARMACEUTICAL, published 2025).

Test [1] addresses T1, human CD19 exon1-3-His tag protein (human, UniProt P15391 20-186, limits assumed).
T1 construct: membrane-distal part of the extracellular region, made in HEK293E cells; not shown: His tag
T1 sequence (looked up): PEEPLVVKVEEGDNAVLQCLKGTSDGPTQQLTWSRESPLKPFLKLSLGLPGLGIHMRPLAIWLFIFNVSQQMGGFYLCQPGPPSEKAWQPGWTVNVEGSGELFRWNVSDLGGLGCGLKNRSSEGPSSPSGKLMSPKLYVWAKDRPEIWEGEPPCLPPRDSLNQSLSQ
The test is described as follows: ELISA on coated human CD19 exon 1-3-His. The protocol:
Human CD19-his protein (purchased from ACROBiosystems, catalog number: CD9-H52H2) was diluted with PBS to a final concentration of 4 μg/mL, and then added to a 96-well ELISA plate at 100 μl/well. The plate was sealed with a plastic film and incubated overnight at 4° C., the plate was washed 2 times with PBS the next day, and then a blocking solution [PBS+2% (w/w) BSA] was added for blocking at room temperature for 2 h. The blocking solution was poured off, and 100 nM gradiently diluted CD19 chimeric antibody or control antibody was added at 50 μl/well. After incubation at 37° C. for 2 h, the plate was washed 3 times with PBS. […] TMB substrate was added at 50 μl/well, and incubated at room temperature for 10 min, and then a stop solution (1.0 N HCl) was added at 50 μl/well. The OD450 nm values were read by an ELISA microplate reader (Multimode Plate Reader, EnSight, purchased from Perkin Elmer).
CD19 protein contains 4 exons in the extracellular region, in which exons 1-3 are located at the membrane-distal end and exon 4 is located at the membrane-proximal end. […] To identify the distribution of antigen binding epitopes of the chimeric antibodies, human CD19 exon 1-3-His (membrane-distal end) was used to coat at 2 μg/mL according to the ELISA method in example 5.1.

Test [2] has as its target T2, Human CD19-his protein (human, UniProt P15391 20-291).
T2 construct: bought protein; also called recombinant human CD19-His; CD19 full-length protein; not shown: His tag
T2 sequence (looked up): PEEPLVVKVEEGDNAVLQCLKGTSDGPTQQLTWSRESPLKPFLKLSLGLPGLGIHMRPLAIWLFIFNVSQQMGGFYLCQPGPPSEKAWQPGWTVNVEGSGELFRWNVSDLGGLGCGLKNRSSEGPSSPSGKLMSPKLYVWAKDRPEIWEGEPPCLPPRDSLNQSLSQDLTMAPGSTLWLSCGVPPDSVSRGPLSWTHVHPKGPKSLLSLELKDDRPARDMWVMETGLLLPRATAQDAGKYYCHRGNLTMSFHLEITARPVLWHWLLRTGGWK
The test is described as follows: SPR Biacore, Ab captured on Protein A, CD19-His analyte. Put shortly:
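Apparent KD came from a Langmuir 1:1 fit of double-referenced sensorgrams. Recombinant human CD19-His analyte (top 200 nM, 1:1 serial dilution, 5 concentrations) flowed over Protein A-captured antibody for 240 s at 30 μl/min, then buffer for up to 600 s. Running buffer HBS-EP+ at 25 °C; regeneration with 10 mM glycine pH 1.5.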

B1: F3.83.9 (antibody, human IgG1, V domains shown)
VH: DVQLQESGPGLVKPSQSLSLTCSVTGYSITSGYYWNWIRQFPGNKLEWMGYISYDGGNNYNPSLKNRISITRDTSKNQFFLKLNSVTTEDTATYFCAREDYSNWYFDVWGTGTTVTVSS
VL: DIVLTQSPASLAVSLGQRATISCRASQSVSKSSYSYMHWYQQKPGQSPKLLIKYASILKSGVPARFSGSGSGTDFTLNIHPVEEEDTATYYCQHSWEIPWTFGGGTKLEIK
notes: human-murine chimeric antibody, human IgG1 constant
On to B1, for which the binding result in test [1] is given as “no binding (tested: 100 nM)”. In test [2], this molecule returned a dissociation constant Kd of 3.67 nM, an off-rate constant (koff) of 0.000312 s⁻¹ and an association rate constant (kon) of 85100 M⁻¹ s⁻¹.

B2: F4.145.9 (antibody, human IgG1, V domains shown)
VH: EVQLVESGGGLVKPGGSLKLSCAAAGFAFSSYDMSWVRQIPEKRLEWVAYISAGGGNTYFLDTVKGRFTISRDHAKNTLSLQMSSLKSEDTAMYFCVRHGDYYRYFYAMDYWGQGSSVTVSS
VL: DIVMTQSHKFMSTSVGDRVSITCKASQDVGTAVAWSQQKPGQSPKLLIYWASTRHTGVPDRFTGSGSGTDFTLTISNVQSEDLADYFCQQFVTYPYTFGGGTKLEIK
notes: as for B1
Regarding B2, in test [1], the binding result is listed as “no binding (tested: 100 nM)”. In test [2], this molecule gave a dissociation constant Kd of 3.68 nM, an off-rate constant (koff) of 0.000591 s⁻¹ and an association rate constant (kon) of 161000 M⁻¹ s⁻¹.

B3: F4.96.6 (antibody, human IgG1, V domains shown)
VH: EIQLQQSGPELVKPGASVKVSCKASGYAFSAYNIYWVKQSHGKSLEWIGYIDPYNSGTTYNQKFRGKATLTVDKSSNTAYMHLSSLTSEDSAVYYCTRDGDAMDYWGQGTSVTVSS
VL: EILLTQSPAIIAASPGEKVTITCSASSGVIYMNWYQQKPGSSPKIWIYDVSTLASGVPARFSGSGSGTSFSFTINSMEAEDVATYYCQQRSSYPYTFGGGTKLEIK
notes: as for B1
As for B3, the binding result in test [1] is recorded as “no binding (tested: 100 nM)”. In test [2], this molecule gave a dissociation constant Kd of 3.71 nM, a koff of 0.000918 s⁻¹ and an association rate constant (kon) of 247000 M⁻¹ s⁻¹.

B4: F4.180.1 (antibody, human IgG1, V domains shown)
VH: EVQLQQSAPELVKPGASVKMSCKTSGYTFTENIIHWVKQTHGKSLEWIGGINPDNGGTSYHQKFKGRTTLTIDKSSSTAYMELRSLTSDDSAVFFCARQAPLYWYFDIWGAGTTVTVSS
VL: DIVLTQSPASLAVSLGQRATISCRASESVDSYGNSLMHWFQQKPGQPPRLLIYRASNLESGIPARFSGSGSRTDFTLTITPVEADDVATYYCQQSNEDPWTFGGGTKLEIK
notes: as for B1
With B4, in test [1], the binding result was “no binding (tested: 100 nM)”. In test [2], this molecule had a Kd of 0.359 nM, a koff of 8.52e-05 s⁻¹ and a kon of 237000 M⁻¹ s⁻¹.

B5: F4.191.1 (antibody, human IgG1, V domains shown)
VH: QVQLQQPGAELVRPGASVKLSCKASGYTFTSYWINWVKQRPGQGLEWIGNIHPSDSYTNYNQKFKDKATLTVDKSSSTAYMQFSSPTSEDSAVYYCTREDYYYGSNYDAMDYWGQGTSVTVSS
VL: DIVMTQSHKFMSTSVGDRVNITCKASQDVGSSVAWYQQKPGQSPKLLIYWASTRHAGVPDRFTGSGSGADFTLTISNVQSEDLADYFCQQYSTYPLTFGAGTKLELK
notes: as for B1
In the case of B5, in test [1], the binding result is listed as “no binding (tested: 100 nM)”. In test [2], this molecule registered a Kd of 1.9 nM, a koff of 0.000388 s⁻¹ and an association rate constant (kon) of 205000 M⁻¹ s⁻¹.

B6: F3.126.15 (antibody, human IgG1, V domains shown)
VH: QVQLQQPGAELVMPGASVKLSCKASGYTFTSYWMHWVKQRPGQGLEWIGEIDPSDSYTTYNQNFKGKATLTVDISTSTAYIQLSNLTSEDSAVYYCARLTGNYIHYWGQGTTLTVSS
VL: DIVMTQSHKFMSTSVGDRVSITCKASQDVSPAVAWYQQRPGQCPKLLIFSSSYRSTGVPDRFTGSGSGTDFTFTISSVQAEDLAVYYCQQHYSLPLTFGAGTKLELK
notes: as for B1
For B6, in test [1], the binding result was “no binding (tested: 100 nM)”. In test [2], this molecule registered a Kd of 13 nM, a koff of 0.000799 s⁻¹ and an on-rate constant (kon) of 61300 M⁻¹ s⁻¹.

B7: F4.18.13 (antibody, human IgG1, V domains shown)
VH: QVQLQQSGPELVKPGASVKISCKASGYAFSSFWMNWVKQRPGEGLEWIGRIYPGDGDTNYNGKFKGKATLTADDSSSTAYMQLSSLTSVDSAVYFCAREVIAAVVTTDFDYWGQGTTLTVSS
VL: DIQMTQTTSSLSASLGDRVTISCRTSQDISNYLNWYLQKPDGTVKLLIYYTSGLHSGVPSRFSGSGSGTDYSLTISNLEPEDIATYFCQQGKTLPYTFGGGTKLEIK
notes: as for B1
With B7, the binding result in test [1] is given as “no binding (tested: 100 nM)”. In test [2], this molecule displayed a dissociation constant Kd of 0.362 nM, a dissociation rate constant (koff) of 0.000171 s⁻¹ and an on-rate (kon) of 472000 M⁻¹ s⁻¹.

B8: F3.113.16 (antibody, human IgG1, V domains shown)
VH: QVQLQQPGAELVKPGASVKLSCKASGYTFTNYWMQWVKQRPGQGLEWIGEIDPSDSYINYNQKFKGKATLTADTSSSTAYMQLSSLTYEDSAVYYCARPVTVPWYFDVWGTGTTVTVSS
VL: EIVLTQSPTTMAASPGEKITITCSATSSISSNYLHWYQQKPGFSPKLLIYRTSNLASGVPARFSGSGSGTSYSLTIGTMEAEDVATYYCQQGSAIPRIFTFGSGTKLEIK
notes: as for B1
Take B8: in test [1], the binding result is recorded as “no binding (tested: 100 nM)”. Moreover, in test [2], binding was put at a Kd of 12.4 nM, the koff turned out to be 0.00105 s⁻¹ and the kon worked out at 84800 M⁻¹ s⁻¹.

B9: F4.152.7 (antibody, human IgG1, V domains shown)
VH: QVQLQQPGAELVKPGASVKLSCKASGYTFTSYWMHWVKQRPGQGLEWIGEIDPSDSYTNYNQKFKGKATLTADKSSSTAYMQLSGLTSEDSAVYHCARGGDYDGYYVMDYWGQGTSVTVSS
VL: EIVLTQSPTTMAASPGEKITITCSASSSISSNYLHWYQQKPGFSPKLLIYRTSNLASGVPARFSGSGSGTSYSLTIGTMEADDVATYYCQQGSYIPRIFTFGSGTKLEIK
notes: as for B1
For B9, the binding result in test [1] was “no binding (tested: 100 nM)”. Further, in test [2], the dissociation constant Kd came out at 0.337 nM, the koff is 8.9e-05 s⁻¹ and the kon was 264000 M⁻¹ s⁻¹.

B10: F4.15.9 (antibody, human IgG1, V domains shown)
VH: QVQLQQSGPELVKPGASVKISCKASGYAFSSSWMNWLKQRPGQGLEWIGRIYPGDGDTNYNGKFKGKATLTADESSSTAYMQLSSLTSVDSAVYFCARGITTIITIAWFASWGQGTLVTVSA
VL: QIVLSQSPTILSASPGEKVTMTCRASSSVSYMHWYQQKPGSSPKPWIYATSNLASGVPPRFSGSGSGTSYSLTISRVGAEDAATYYCQQWSSDPWTFGGGTKLEIK
notes: as for B1
For B10, in test [1], the binding result was “no binding (tested: 100 nM)”. In test [2], binding was put at a Kd of 2.72 nM, the dissociation rate constant (koff) was determined as 0.000949 s⁻¹ and the kon came to 348000 M⁻¹ s⁻¹.

B11: F4.107.12 (antibody, human IgG1, V domains shown)
VH: EVQLQQSGPELVKPGASVKMSCKASGYTFTSYVLHWVRQKPGQGLEWIGYFNPYNDGTEYNEKFKGKAILTSDKSSSTAYMELNSLTSEDSAVYYCVGGTYYYGSSYPFAYWGQGTLVTVST
VL: DVVMTQISLSLPVSLGDQASISCRSSQSLIHSNGNTYLQWYLQKPGQSPKLLIYKVSNRLSGVPDRFSGSGSGTDFTLKISRVEAEDLGVYFCSQSTHVPYTFGGGTKLEIK
notes: as for B1
For the molecule B11, in test [1], the binding result was “no binding (tested: 100 nM)”. In test [2], this molecule returned a Kd of 1.09 nM, an off-rate (koff) of 0.000217 s⁻¹ and an on-rate (kon) of 200000 M⁻¹ s⁻¹.

B12: F4.125.12 (antibody, human IgG1, V domains shown)
VH: EVKLVESGGGLVQPGGSLKLSCAASGFTFSTYTMSWVRQTPEKRLEWVAFISSGGGHINYPDTVKGRFTISRDNAKNTLYLQMSSLKSEDTAMYYCARHSYWFFDVWGAGTTVTVSS
VL: DVQITQSPSYLAASPGETITINCRASKNIDTYLAWYQEKPGKTNKLLIYSGSTLQSGIPSRFRGGGSGTDFTLTICSLEPEDFAMYYCQQHNEYPLTFGAGTKLELK
notes: as for B1
With B12, the binding result in test [1] is reported as “no binding (tested: 100 nM)”. For the same molecule, in test [2], binding was characterised by a dissociation constant (Kd) of 0.734 nM, the koff came to 0.000204 s⁻¹ and the kon turned out to be 278000 M⁻¹ s⁻¹.

B13: F4.4.6 (antibody, human IgG1, V domains shown)
VH: QVQLQQSGAELARPGASVKLSCKASGYTFTSYWMQWVKQRPGQGLEWIGAIYPGDGDSRYTQKFKGKATLTADKSSSTAYMQLSSLASEDSAVYYCARSTTTVLGNNFEYWGQGTTLTVSS
VL: QIVLTQSPAIMSALPGEKVTMTCSASSSVSSMHWYQQKSGTSPKRWIYDTSKLASGVPARFSGSGSGTSYSLTISSMEAEDAATYYCQQWSSNPWTFGGGTKLEIK
notes: as for B1
Regarding B13, the binding result in test [1] was “no binding (tested: 100 nM)”. In addition, in test [2], the Kd stood at 9.47 nM, the koff turned out to be 0.0019 s⁻¹ and the on-rate constant (kon) is 201000 M⁻¹ s⁻¹.
